Test [1] deals with TRF2^TRFH (TRF Homology domain of human TRF2, residues 42–245) (human). Briefly: ITC; MCPH1^TBM peptides at 1.0 mM in the syringe titrated into TRF2^TRFH at 0.1 mM in the sample cell; 20 °C; 25 mM Tris-HCl pH 8.0, 150 mM NaCl.
In test [2] the target is TRF2, endogenous (U2OS) (human (endogenous in U2OS)) (UniProt Q15554).

Results on 8 molecules are retold here after PMC7672075.

Where no end group is shown, it is not given here. [ ]: non-standard residue; d: D form. pS = N[C@@H](COP(=O)(O)O)C(=O)O

Sequence of UniProt Q15554 (Q15554 whole entry): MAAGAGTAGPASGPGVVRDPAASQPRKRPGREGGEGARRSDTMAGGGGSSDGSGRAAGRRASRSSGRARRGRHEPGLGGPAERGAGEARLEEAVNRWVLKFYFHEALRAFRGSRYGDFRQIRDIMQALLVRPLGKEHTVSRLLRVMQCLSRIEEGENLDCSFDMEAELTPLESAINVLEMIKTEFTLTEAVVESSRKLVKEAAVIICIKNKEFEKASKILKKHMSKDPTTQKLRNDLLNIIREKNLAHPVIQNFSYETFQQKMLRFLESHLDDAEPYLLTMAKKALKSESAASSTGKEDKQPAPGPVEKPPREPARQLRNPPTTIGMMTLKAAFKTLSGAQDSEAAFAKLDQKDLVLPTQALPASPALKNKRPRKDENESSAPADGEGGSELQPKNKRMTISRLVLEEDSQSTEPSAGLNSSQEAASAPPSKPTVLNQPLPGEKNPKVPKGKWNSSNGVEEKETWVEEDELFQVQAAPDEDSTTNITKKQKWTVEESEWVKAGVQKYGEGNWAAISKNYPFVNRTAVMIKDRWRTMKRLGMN

On to SQETFEEKYRLSATLSSTKGH [MCPH1^TBM peptide P334A, synthetic], for which the Kd in test [1] came out at 24 µM. The same measure, in the same setting: in the case of SQETFEEKYRLDPTLSSTKGH [MCPH1^TBM peptide S333D, synthetic] it was 21 µM; in that of SQETFEEKYRL[pS]PTLSSTKGH (also: phosphoserine at S333, position in peptide not given here) [MCPH1^TBM peptide phosphorylated at S333, synthetic], 79 µM. The same measure, in the same setting: next, SQETFEEKYRLAPTLSSTKGH [MCPH1^TBM peptide S333A, synthetic]: 0.16 µM.

B1: FLAG-tagged WT MCPH1 (human) (natural protein)
chain: MAAPILKDVVAYVEVWSSNGTENYSKTFTTQLVDMGAKVSKTFNKQVTHVIFKDGYQSTWDKAQKRGVKLVSVLWVEKCRTAGAHIDESLFPAANMNEHLSSLIKKKRKCMQPKDFNFKTPENDKRFQKKFEKMAKELQRQKTNLDDDVPILLFESNGSLIYTPTIEINSRHHSAMEKRLQEMKEKRENLSPTSSQMIQQSHDNPSNSLCEAPLNISRDTLCSDEYFAGGLHSSFDDLCGNSGCGNQERKLEGSINDIKSDVCISSLVLKANNIHSSPSFTHLDKSSPQKFLSNLSKEEINLQRNIAGKVVTPDQKQAAGMSQETFEEKYRLSPTLSSTKGHLLIHSRPRSSSVKRKRVSHGSHSPPKEKCKRKRSTRRSIMPRLQLCRSEDRLQHVAGPALEALSCGESSYDDYFSPDNLKERYSENLPPESQLPSSPAQLSCRSLSKKERTSIFEMSDFSCVGKKTRTVDITNFTAKTISSPRKTGNGEGRATSSCVTSAPEEALRCCRQAGKEDACPEGNGFSYTIEDPALPKGHDDDLTPLEGSLEEMKEAVGLKSTQNKGTTSKISNSSEGEAQSEHEPCFIVDCNMETSTEEKENLPGGYSGSVKNRPTRHDVLDDSCDGFKDLIKPHEELKKSGRGKKPTRTLVMTSMPSEKQNVVIQVVDKLKGFSIAPDVCETTTHVLSGKPLRTLNVLLGIARGCWVLSYDWVLWSLELGHWISEEPFELSHHFPAAPLCRSECHLSAGPYRGTLFADQPAMFVSPASSPPVAKLCELVHLCGGRVSQVPRQASIVIGPYSGKKKATVKYLSEKWVLDSITQHKVCAPENYLLSQ
B1: the percentage of HeLa cells with >5 FLAG-MCPH1 foci at telomeres (immunostaining and telomere PNA-FISH), functional telomeres in test [2] was 11 % of cells.

B2: FLAG-MCPH1^S333A (natural protein)
chain: MAAPILKDVVAYVEVWSSNGTENYSKTFTTQLVDMGAKVSKTFNKQVTHVIFKDGYQSTWDKAQKRGVKLVSVLWVEKCRTAGAHIDESLFPAANMNEHLSSLIKKKRKCMQPKDFNFKTPENDKRFQKKFEKMAKELQRQKTNLDDDVPILLFESNGSLIYTPTIEINSRHHSAMEKRLQEMKEKRENLSPTSSQMIQQSHDNPSNSLCEAPLNISRDTLCSDEYFAGGLHSSFDDLCGNSGCGNQERKLEGSINDIKSDVCISSLVLKANNIHSSPSFTHLDKSSPQKFLSNLSKEEINLQRNIAGKVVTPDQKQAAGMSQETFEEKYRLAPTLSSTKGHLLIHSRPRSSSVKRKRVSHGSHSPPKEKCKRKRSTRRSIMPRLQLCRSEDRLQHVAGPALEALSCGESSYDDYFSPDNLKERYSENLPPESQLPSSPAQLSCRSLSKKERTSIFEMSDFSCVGKKTRTVDITNFTAKTISSPRKTGNGEGRATSSCVTSAPEEALRCCRQAGKEDACPEGNGFSYTIEDPALPKGHDDDLTPLEGSLEEMKEAVGLKSTQNKGTTSKISNSSEGEAQSEHEPCFIVDCNMETSTEEKENLPGGYSGSVKNRPTRHDVLDDSCDGFKDLIKPHEELKKSGRGKKPTRTLVMTSMPSEKQNVVIQVVDKLKGFSIAPDVCETTTHVLSGKPLRTLNVLLGIARGCWVLSYDWVLWSLELGHWISEEPFELSHHFPAAPLCRSECHLSAGPYRGTLFADQPAMFVSPASSPPVAKLCELVHLCGGRVSQVPRQASIVIGPYSGKKKATVKYLSEKWVLDSITQHKVCAPENYLLSQ
Regarding B2, in test [2], the percentage of HeLa cells with >5 FLAG-MCPH1 foci at telomeres (immunostaining and telomere PNA-FISH), functional telomeres is 48 % of cells.

SQETFEEKYRLSPTLSSTKGH [MCPH1^TBM peptide, wild type, synthetic]: in test [1], the Kd was 0.24 µM. In test [1], SQETFEEKYRLEPTLSSTKGH [MCPH1^TBM peptide S333E, synthetic] displayed a dissociation constant (Kd) of 14 µM.
